The results in this text go back to patent US20160222086.

The test system of series [1] is T1, thrombin-activated 40 K-PEG-[O]-rFVIII.
T1 sequence: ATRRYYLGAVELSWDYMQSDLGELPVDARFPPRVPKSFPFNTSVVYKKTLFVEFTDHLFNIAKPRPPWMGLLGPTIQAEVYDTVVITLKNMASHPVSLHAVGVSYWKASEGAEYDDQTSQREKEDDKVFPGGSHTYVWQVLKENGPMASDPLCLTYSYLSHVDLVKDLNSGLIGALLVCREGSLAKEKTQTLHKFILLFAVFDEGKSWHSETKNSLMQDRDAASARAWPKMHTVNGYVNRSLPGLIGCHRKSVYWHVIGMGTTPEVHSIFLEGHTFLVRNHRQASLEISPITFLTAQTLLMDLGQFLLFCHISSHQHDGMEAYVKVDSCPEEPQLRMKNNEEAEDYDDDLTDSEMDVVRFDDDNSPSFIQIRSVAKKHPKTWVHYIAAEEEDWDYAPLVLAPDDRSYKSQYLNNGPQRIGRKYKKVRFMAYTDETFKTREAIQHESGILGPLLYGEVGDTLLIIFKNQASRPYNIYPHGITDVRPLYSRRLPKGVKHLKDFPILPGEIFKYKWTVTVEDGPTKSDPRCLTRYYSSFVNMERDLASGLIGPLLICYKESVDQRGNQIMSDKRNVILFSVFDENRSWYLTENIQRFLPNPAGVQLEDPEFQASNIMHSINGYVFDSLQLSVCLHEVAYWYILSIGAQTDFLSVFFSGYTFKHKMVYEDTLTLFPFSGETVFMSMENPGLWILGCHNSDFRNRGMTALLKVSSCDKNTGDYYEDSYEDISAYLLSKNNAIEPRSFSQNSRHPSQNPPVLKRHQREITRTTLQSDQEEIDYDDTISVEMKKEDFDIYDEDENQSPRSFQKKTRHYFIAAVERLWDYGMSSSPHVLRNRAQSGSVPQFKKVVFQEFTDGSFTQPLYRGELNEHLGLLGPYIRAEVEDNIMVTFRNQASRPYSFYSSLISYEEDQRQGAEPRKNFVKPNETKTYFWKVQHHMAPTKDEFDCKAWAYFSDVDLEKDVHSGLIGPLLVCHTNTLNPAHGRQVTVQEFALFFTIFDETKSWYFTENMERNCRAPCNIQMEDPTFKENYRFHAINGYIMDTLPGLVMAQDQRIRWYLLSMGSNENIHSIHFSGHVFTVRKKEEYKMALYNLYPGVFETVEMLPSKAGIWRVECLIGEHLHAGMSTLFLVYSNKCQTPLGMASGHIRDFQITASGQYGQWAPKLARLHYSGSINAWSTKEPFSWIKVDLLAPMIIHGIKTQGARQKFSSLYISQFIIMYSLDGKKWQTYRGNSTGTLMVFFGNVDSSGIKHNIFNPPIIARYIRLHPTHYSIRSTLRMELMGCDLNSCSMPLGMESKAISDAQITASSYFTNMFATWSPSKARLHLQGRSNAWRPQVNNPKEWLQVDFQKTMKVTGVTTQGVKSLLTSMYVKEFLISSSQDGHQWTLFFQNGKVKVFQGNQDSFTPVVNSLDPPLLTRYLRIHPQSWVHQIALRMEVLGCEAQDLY

Series [2] concerns T2, thrombin-activated 80 K-PEG-[O]-rFVIII.
T2 sequence: T1 sequence

Series [3] deals with T3, thrombin-activated rFVIII (rFVIIIa), made from the recombinant B-domain truncated Factor VIII N8.
T3 sequence: T1 sequence

As for FIXa, the results for the K1/2FIXa in series [1], in series [2] and in series [3] were 0.42 nM, 1.11 nM and 0.88 nM, respectively. Besides, the “apparent Kd of rFVIIIa-FIXa interaction (K1/2FIXa)” value in series [1] and in series [2] was “O-linked glycoPEGylation did not affect the apparent Kd of rFVIIIa-FIXa interaction (K1/2FIXa)” each time.
